Reference: the RNAGym collection of RNA variant scans (doi:10.1073/pnas.2313332121)

B1: TPR t1 (parent)
chain: GACCAAUCUGCCCUCAGAGCUCGAGAACAUCUUCGGAUGCAGAGGAGGCAGGCUUCGGUGGCGCGAUAGCGCCAACGUCCUCAACCUCCAAUGCAUCCCACCACAUGAUGAUGCCUGAAGAGCCUUGGUUUUUUG

Variants of: B1
Experiment: polymerase ribozyme fitness, log enrichment relative to wild type (log ratio); higher = more active; in vitro selection for triplet polymerase activity
How it was run: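 Input and output libraries were sequenced on Illumina after a single in vitro selection round, run in triplicate on PCR-built, transcribed mutant libraries of each subunit of a heterodimeric triplet polymerase ribozyme. Selection annealed libraries to a biotinylated primer, the partner subunit and triplets, incubated them frozen at −7 °C, then gel-excised extended constructs for streptavidin-bead capture and RT-PCR. Genotypes with ≥10 input reads and ≥1 read per output were kept. Fitness is the logarithm, taken in base 2, of genotype enrichment divided by wild-type enrichment, using inverse-variance-weighted replicate averages.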

Row | Variant | polymerase ribozyme fitness (log ratio)
1 | GACCAAUCUGCCCUCAGAGCUCGAGAACAUCUUCGGAUGCAGAGGAGGUAGGCUUCGGUGGCGCGAUAGCGUCAUCGUCCUCAACCUCCAAUGCAUCCCACCACAGGAUGAUGCCUGAAGAGCCUUGGUUUUUUG [C49U C72U A75U U106G] | -3.16
2 | GACCAAUCUGCCCUCAGAGCUCGAGAACAUCUUCGGAUGCAGAGGAGGUUGGCUUCGGUGGCGCGAUAGCGCCAACGUCCUCAACCUCCAAUGCAUCCCACCACAUGAUGAUGCCUGAAGAGCCUUGGUUUUUUG [C49U A50U] | -3.59
3 | GACCAAUCUGCCCUCAGAGCUCGAGAACAUCUUCGGAUGCAGAGGAGGUAGGCUUCGGUGGCGCGAUAGCGCCAACGUCCUCAACCUCCAAUGCAUCCCACCACAUGAUGAUGCCUGAAGAGCCUUGGUUUUUUG [C49U] | -0.473
4 | GACCAAUCUGCCCUCAGAGCUCGAGAACAUCUUCGGAUGCAGAGGAGGUAGGCUUCGGUGGCGCGAUAGCGCCCACGUCCUCAACCUCCAAUGCAUCCCACCACAUGAUGAUGCCUGAAGAACCUUGGUUUUUUG [C49U A74C G122A] | -1.62
5 | GACCAAUCUGCCCUCAGAGCUCGAGAACAUCUUCGGAUGCAGAGGAGGUAGGCUUCGGUGGCGCGAUGGCGCCAACGUCCUCAACCUCCAAUGCAUCCCACCACAUGAUGAUGCCUGAAGAGCCUUGGUUUUUUG [C49U A68G] | -4.08
6 | GACCAAUCUGCCCUCAGAGCUCGAGAACAUCUUCGGAUGCAGAGGAGGUAGGCUUCGGUGGCGCGAUAGCGGCAACGUCCUCAACCUCCAAUGCAUUCCACCACAAGAUGAUGCCUGAAGAGCCUUGGUUUUUUG [C49U C72G C97U U106A] | -0.73
7 | GACCAAUCUGCCCUCAGAGCUCGAGAACAUCUUCGGAUGCAGAGGAGGUAGGCUUCGGUGGCGCGAUAGUGCCAACGUCCUCAACCUCCAAUGCAUCCCACCACAUGAUGAUGCCUGAAGAGCCUUGGUCUUUUG [C49U C70U U130C] | -0.66
8 | GACCAAUCUGCCCUCAGAGCUCGAGAACAUCUUCGGAUGCAGAGGAGGUAGGCUUAGGUGGCGCGAUAGCGCCAACGUCCUCAACCUCCAAUGCAUCCCACCACAUGAAGAUGCCUUAAGAGCCUUGGUUUUUUG [C49U C56A U109A G117U] | -5.98
9 | GACCAAUCUGCCCUCAGAGCUCGAGAACAUCUUCGGAUGCAGAGGAGGGAGGCUUCGGUGGCGCGAUAGCGCCAACGUCCUCAACCUCCAAAGCAUCCCACCACAUGAUGAUGCCUGAAGAGGCUUGGUUUUUUG [C49G U92A C123G] | -3.27
10 | GACCAAUCUGCCCUCAGAGCUCGAGAACAUCUUCGGAUGCAGAGGAGGGAGGCCUCGGUGGCCCGAUAGCGCCAACGUCCUCAACCUGCAAUGCAUCCCACCACAGGAUGAUGCCUGAAGAGCCUUGGUUUUUUG [C49G U54C G63C C88G U106G] | -5.67
11 | GACCAAUCUGCCCUCAGAGCUCGAGAACAUCUUCGGAUGCAGAGGAGGGAGGCUUCGGUGGCGCGAUAGCGCCAACGUCCCCAACCUCCAAUGCAUCCCACCACAUGAUGAUGCCUGAAGAGCCUUGGUUUUUUG [C49G U81C] | -3.21
12 | GACCAAUCUGCCCUCAGAGCUCGAGAACAUCUUCGGAUGCAGAGGAGGGAGGCUUCGGUGGCGCGAUAGCGCCAACGUCCUCAACCUCCAAUGCAUCCCACCACAUGAUGAUGCCUGAAGAACCUUGGUUUUUUG [C49G G122A] | -0.99
13 | GACCAAUCUGCCCUCAGAGCUCGAGAACAUCUUCGGAUGCAGAGGAGGUAGGCUUCGGUGGCGCGAUAGCGCCAACGUCCUCACCCUCCAAUGCAUCCCACCACAUGAUGAUGCCUGAAGAGCCUUGGUUUUUUG [C49U A84C] | -1.9
14 | GACCAAUCUGCCCUCAGAGCUCGAGAACAUCUUCGGAUGCAGAGGAGGUAGGCUUCGGUGGCGCGAUAGCGCCAACGUCCUCAACCUCCAAUGCAUCCCACCACAUGAUGAUGCCUGAAGUGCCUUGGUUUUUUG [C49U A121U] | 1.09
15 | GACCAAUCUGCCCUCAGAGCUCGAGAACAUCUUCGGAUGCAGAGGAGGUAGGCUUAGGUGGCGCGAUAGCGCCAACGUCCUCAACCUCCAAUGCAUCCCACCACAUGAUGAUGCCUGAACAGCCUUGGUUUUUUG [C49U C56A G120C] | 0.0733
16 | GACCAAUCUGCCCUCAGAGCUCGAGAACAUCUUCGGAUGCAGAGGAGGUAGGCUUCGGUGGCGCGAUAGCGCCAACGUCCUCAACCUCCAUUGCAUCCCACCACAUGAUGAUGCAUGAAGAGCCUUGGUUUUUUG [C49U A91U C115A] | -2.58
17 | GACCAAUCUGCCCUCAGAGCUCGAGAACAUCUUCGGAUGCAGAGGAGGUGGGCUUCGGUGGCGCGAUAGCGCCAACGCCCUCAACCUCCAAUGCAUCCCACCACAUGAUGAUGCAUGAAGAGCCUUGGUUUUUUG [C49U A50G U78C C115A] | -1.98
18 | GACCAAUCUGCCCUCAGAGCUCGAGAACAUCUUCGGAUGCAGAGGAGGGAGGCUUCGGUGGCGCGAUAGCGCCAACGUCCUCAACCUCCAAUGCAUCCCACCACAUGAUGAUGCCGGAAGAGCCUUGGUUUUUUG [C49G U116G] | -2.61
19 | GACCAAUCUGCCCUCAGAGCUCGAGAACAUCUUCGGAUGCAGAGGAGGGAGGCUUCGGUGGCGCGAUAGCGCCAACGUCCUCAACCUCCAAUGCAUCCCACCACAUGAUGAGGCCUGAAGAGCCUUGGGUUUUUG [C49G U112G U129G] | -0.483
20 | GACCAAUCUGCCCUCAGAGCUCGAGAACAUCUUCGGAUGCAGAGGAGGUGGGCUUCGGUGGCGCGAUAGAGCCAACGUCCUCAACCUCCAAUGCAUCCCACCACAUGAUGAUGCCUGAAGAGCCUUGGUUUUUUG [C49U A50G C70A] | -4.55
21 | GACCAAUCUGCCCUCAGAGCUCGAGAACAUCUUCGGAUGCAGAGGAGGUAGGCUUCGGUGGCGCGAUAGCGCCAACGUCCUCAACCUCCAAUGCAUCCCACCACAUGAUGAUGCCUGAUGAGCCUUGGUUUUUUG [C49U A119U] | -0.961

Row | Variant | polymerase ribozyme fitness (log ratio)
22 | GACCAAUCUGCCCUCAGAGCUCGAGAACAUCUUCGGAUGCAGAGGAGGUAGGCUUCGGUGGCGCGAUAGAGCCAACGUCCUCAACCUCCAAUGCAUCCCACCACAUGAUGAUGCCUGAAGAGCCUUGGUUUUUUG [C49U C70A] | -2.47
23 | GACCAAUCUGCCCUCAGAGCUCGAGAACAUCUUCGGAUGCAGAGGAGGUAGGCUUCGGUGGCGCGAUAGCGGCAACGUCCUCAACCUCCAAUGCAUCCCACCACAUGAUGAUUCCUUAAGAGCCUUGGUUUUUUG [C49U C72G G113U G117U] | -6.76
24 | GACCAAUCUGCCCUCAGAGCUCGAGAACAUCUUCGGAUGCAGAGGAGGUCGGCUUCGGUGGCGCGAUAACGCCAACGUCCUCAACCUCCAAUGCAUCCCACCACAUGAUGAUGCCUGAAGAGCCUUGGUUUUUUU [C49U A50C G69A G135U] | -3.24
25 | GACCAAUCUGCCCUCAGAGCUCGAGAACAUCUUCGGAUGCAGAGGAGGGAGGCUGCGGUGGCGCGAUAGCGCCAACGUCCUCAACCUCAAACGCAUCCCACCACAUGAUGAUGCCUGAAGAGCCUUGGUUUUUUG [C49G U55G C89A U92C] | -5.1
26 | GACCAAUCUGCCCUCAGAGCUCGAGAACAUCUUCGGAUGCAGAGGAGGGAGGCUUCGGUGGCGCGAUAGCGCCAACGUCCUCAACCUCCAAUGCAUCCCACCACAUGAUGAUGCCUGAAGAUCGUUGGUUUUUUG [C49G G122U C124G] | -1.12
27 | GACCAAUCUGCCCUCAGAGCUCGAGAACAUCUUCGGAUGCAGAGGAGGUAGGAUUCGGUGGCGCGAUAGCGCCAACGUCCUCAACCUCCAAUGCAUCCCAACACAUGAUGAUGCCUGAAAAGCCUUGGUUUUUUG [C49U C53A C101A G120A] | -1.13
28 | GACCAAUCUGCCCUCAGAGCUCGAGAACAUCUUCGGAUGCAGAGGAGGUAGGCUUAGGUGGCGCGAUAGCGCCAACGUCCUCAACCUCCAAUGCAUCCCACCACAUGAUGAUGCCUGAAGAGCCUUGGUUUUUUG [C49U C56A] | -1
29 | GACCAAUCUGCCCUCAGAGCUCGAGAACAUCUUCGGAUGCAGAGGAGGUAGGCUUCGGUGGCGCGAUAGCGCCAACGUCCUCAACCUCCAAUGCUUCCCACCACAUGAUGAUGCCUGAAGAGCCUUGGUGUUUUG [C49U A95U U130G] | -1.71
30 | GACCAAUCUGCCCUCAGAGCUCGAGAACAUCUUCGGAUGCAGAGGAGGUAGGCUUCGGUGGCGCGAUAGCGCCAACGUCCUCAACCUCCAAUGCAUCCCACCACAUGAUGAUGCCUGAUGAUCCUUGGUUUUUUG [C49U A119U G122U] | -1.11
31 | GACCAAUCUGCCCUCAGAGCUCGAGAACAUCUUCGGAUGCAGAGGAGGUAGGCUUCGGUGGCGCGGUAGCGCCAACGUCCUCAACCUCCAAUGCAUCCCACCACAUGAUGAUGCCUGAAGAGCCUUGGUUUUUUG [C49U A66G] | -1.95
32 | GACCAAUCUGCCCUCAGAGCUCGAGAACAUCUUCGGAUGCAGAGGAGGUAGGAUUCGGUGGCGCGAUAGCGCCAACGUCCUCAACCUCCAAUGCAUCCCACCACAUGAUGAUGCCUGAAGAGCCUUGGUUUUUUG [C49U C53A] | -0.289
33 | GACCAAUCUGCCCUCAGAGCUCGAGAACAUCUUCGGAUGCAGAGGAGGUAGGCUUCGGUGGCGCGAUAGCGCCAACGUCCUCAACCUCCAAUGCCUCCCACCACAUGAUGAUGCCUGAAGAGCCUUGGUUUUUUG [C49U A95C] | -1
34 | GACCAAUCUGCCCUCAGAGCUCGAGAACAUCUUCGGAUGCAGAGGAGGGAGGCUUCGGUGGCGCGAUAGCGCCAACGCCCUCAACCUCCAAUGCCUCCCACCACAUGAUGAUGCCUGAAGAGCCUUGGUUUUUUG [C49G U78C A95C] | -2.13
35 | GACCAAUCUGCCCUCAGAGCUCGAGAACAUCUUCGGAUGCAGAGGAGGGAGGCUUCGGUGGCGCGAUAGCGCCAACGGCCUCAACCUCCAAUGCAUCCCACCACAUGAUGAUGCCUGAAGAGCCUUGGUUUUUUG [C49G U78G] | -0.998
36 | GACCAAUCUGCCCUCAGAGCUCGAGAACAUCUUCGGAUGCAGAGGAGGUAGGCUUCGGUGGCGCGAUAGCGGCAACGUCCUCAACCUCCAAUGCAUCCCACCACAUGAUGAUGCCUGAAGAGCCUUGGUUUUUUG [C49U C72G] | -0.927
37 | GACCAAUCUGCCCUCAGAGCUCGAGAACAUCUUCGGAUGCAGAGGAGGUAGGCUUCGGUGGCGCGAUAGCGCCAACGUCCUCAACCUCCAAUGCGUCCCACCACAUGAUGAAGCCUGAAGAGCCUUGGUUUUUUG [C49U A95G U112A] | 0.0263
38 | GACCAAUCUGCCCUCAGAGCUCGAGAACAUCUUCGGAUGCAGAGGAGGGAGGCUUCGGUGGCGCGAUAGCGCCAACGUCCUCAACCUCCAAUGCAUCCCACCACAUGAUGAGGCCUGAAGAGCCUUGGUUUUUUG [C49G U112G] | 0.00648
39 | GACCAAUCUGCCCUCAGAGCUCGAGAACAUCUUCGGAUGCAGAGGAGGGAGGCUUCGGUGGCGCGAUAGCGCCAACGUCCUCAACCUCCAAUGCAUCCCACCACAUGAUGAAGCCUGAAGAGCCUUGGUUUUUUG [C49G U112A] | 0.92
40 | GACCAAUCUGCCCUCAGAGCUCGAGAACAUCUUCGGAUGCAGAGGAGGGAGGCAUCGGUGGCGCGAUAGCGCCAACGUCCUCAACCUCCAAUGCAUCCCACCACAUGAUGAUGCCUGAAGAGCCUUGGUUUUUUG [C49G U54A] | 0.0212
41 | GACCAAUCUGCCCUCAGAGCUCGAGAACAUCUUCGGAUGCAGAGGAGGUAGGCUUCGGUGGUGCGAUAGCGCCAACGUCCUCAACCUCCAAUGCAUCCCACCACAUGAUGAUGCCUGAAGAGCCUUGGUUUUUUG [C49U C62U] | -1.19
42 | GACCAAUCUGCCCUCAGAGCUCGAGAACAUCUUCGGAUGCAGAGGAGGUAGGCUUAGGUGGCGCGAUAGUGCCAAAGUCCUCAACCUCCAAUGCAUCCCACCACAUGAUGAUGCCUGAAGAGCCUUGGUUUAUUG [C49U C56A C70U C76A U132A] | -3.06
